Target: receptor of interferon alpha (printed only as 'receptor'), on Daudi cells
Assay: cell-based or functional assay

IC50 (pg/mL), inhibition of Daudi cell proliferation: 15.5 pg/mL
Substance: commercially available IFNα (from UniProt P01563 24-188) (ligand)
